In publication PMC4993455 (PLoS ONE, 2016):
Blank lines part the entries; values can stand above or below the binder they belong to.

Key:
[1] = target: the molecule itself; experiment: SEC; analytical gel filtration of nuclear fractions (100 μl) of HEK 293T cells overexpressing HA-PDRG1, FLAG-MATα1 or both on Superose 12 10/300 GL; fractions analysed by dot-blot
[2] = target: T1, recombinant methionine adenosyltransferase α1 (MATα1) (rat, UniProt P13444 1-397); experiment: SEC; equimolar purified recombinant MATα1 or MATα2 and GST-PDRG1 incubated 1 hour at 4°C, then Biogel A column (1.5 x 90 cm) in 50 mM Tris/HCl pH 8, 10 mM MgSO4, 50 mM KCl at 4°C; both proteins detected in the pooled activity peaks by Coomassie staining and/or western blotting; settings: both partners purified
T1 construct: rat MATα1, pSSRL-T7N containing the rat Mat1a ORF; also called pSSRL-T7N; MATα1 homo-oligomers; source: E. coli BL21(DE3) Codon Plus; soluble extract (pull-down)
T1 sequence (P13444 whole entry): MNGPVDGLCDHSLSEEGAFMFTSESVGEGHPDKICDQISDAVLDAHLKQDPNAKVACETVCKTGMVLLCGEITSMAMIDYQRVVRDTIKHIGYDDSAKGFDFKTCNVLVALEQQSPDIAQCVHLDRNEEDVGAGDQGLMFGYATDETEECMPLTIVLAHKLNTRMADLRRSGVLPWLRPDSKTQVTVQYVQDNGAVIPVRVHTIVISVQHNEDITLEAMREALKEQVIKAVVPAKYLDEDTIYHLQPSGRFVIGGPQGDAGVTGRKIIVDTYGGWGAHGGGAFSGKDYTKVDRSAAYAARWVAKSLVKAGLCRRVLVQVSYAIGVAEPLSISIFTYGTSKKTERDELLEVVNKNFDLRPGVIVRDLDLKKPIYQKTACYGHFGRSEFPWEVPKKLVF

B1: HA-PDRG1 (natural protein)
chain: not shown
notes: residues between the HA tag and PDRG1; rat PDRG1, full ORF (402 bp); also called pHA-PDRG1; HA-tagged PDRG1; source: CHO, HEK 293T or COS-7 cells, transiently transfected; in total lysate, nuclear or cytosolic fractions; not shown: HA, N-terminal, kept
- stoichiometry N [1]: 6

B2: FLAG-MATα1 (enzyme)
chain: not shown
notes: rat MATα1, pFLAG-MAT containing the rat Mat1a ORF; also called pFLAG-MAT; source: CHO, HEK 293T or COS-7 cells, transiently transfected; in total lysate, nuclear or cytosolic fractions
- stoichiometry N [1]: 4

- binding result [2]: binds
B3: GST-PDRG1 (natural protein)
chain: not shown
notes: 9 amino acid linker between GST and PDRG1; rat PDRG1, full ORF (402 bp) in pGEX-5X-1; also called pGEX-PDRG1; tagged-PDRG1; source: E. coli BL21(DE3) Codon Plus; soluble extract loaded on Glutathione-Sepharose (pull-down); purified on Glutathione-Sepharose 4B, eluted with 20 mM GSH (gel filtration, activity); not shown: GST, N-terminal, kept
